Assay results: a protein production outcome set (Wang et al. 2014)

Experiment: label from the status in PepcDB records
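Further: failed if final PepcDB status was selected cloned or expressed and not failed if soluble or beyond.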

Sequence | protein production
MQVQHHNAHLSRSVQAQVARLVLQANLAYGESNSNGLSYIQRLKARNECREYLNQALALEADHAAALGLLGRVEMDDGQLEKAHALFNASLNRQPAQAQQYCNLGYWALKSERPALAEEYFLQALECDRQSAAAFCGVAHAKRLQGQFDVAYLHYRKLLQSGSEWDSVYSGMLSCAQHLQVHKADSDLALDAIALLRQEGLPHQEIGHFVGAIIQQQYDLDNPNAEIFLDAAAEDELLILALQKTLMPNAAVEELVVLLRRAIMAEVAQTASLRDELQPLCLAIAEYADRTGFALAAEDDEERLAATINESIMAQFAVGEPQEALIGSLMISAMYGALFHQNFAVQLGQWNLVDWPLAMQPIMAASYYNRAEEEAIKQNFDEKAEELCLEKTDVPQAWPAWSQLAYRTETSLKAVMAQELGLNTDNLPATLRIMVCGAQSGQRAMELAQYLNDVEVIAVDESLANIAKGTRMAQSLNMDNIVFWPWSIAQRFVADGHKVHWVEVGRLPSPAMTELSLAALINSASIAGAVVHMHTSMAEQTAGDKQIRRLIAEHQLQPTRTSLRQLRRMVLANKQDAVWSSLLQDDDFYSLGGCRDRWFRPQDANQLKELLALVSNEVEWKLVKARDEDGHSLATGPVQRQIQAEALGSEVQSLMGQNLSVYFQRRR | failed
MRGYVLGLLALNLLTLIWGTTFVVVKGAVEGMAPSLLILLRFGVAALFFLPWLFRLPVGVFGPGMELAFWLFVGYASQTLGLAHTSASRSAFITALSVVLVPLLLRLAGREVGPAFLAAFLALAGVGLLSYDPYQPPFNVGDLWTFLTALAYALYIVRLEVHARAFPSLPLTAVQVLGTALFALPWVLAEGGAWGPVAWGAVLYLGVVATALTTWLQTWGQRHVPAPQAAILYTLEPVWAAFFAYLALGERLSPSGLLGALLVLLATLLAIRRSPA | failed
MSVGIDSLDNDHKKLIAILAQLMSAKNEKLGQDDIDVIFERLEGYCLSHFAREEALLAKIDYKQLEAHKLSHQAFIKKIPQLKEQWFAKVTESEAVKDKIILFLQQWLIKHILEEDLDYVPAIHCFQEFSRYEKDKKAKHPWLRFFSIKLSHCLILSHRVLITTLLPVAAVLLLCFFILKDNYQRYDSISKVLGLNSVIEQVNGISHSLQAERGLSTGYTSSNYRSFAKQLRQRRKSTDAKIQYFLWLLEQSANQEIKVSVSRYMTNFQEIVANLSRHRMHLDQKIVGFEETYHAYTQLIGQLLSVSDHLVHIEIGSSHANDISAINAILRYKEFMGQIRAIGMKMAENHQENIYGNVEVSLLIGKQLNTLLIFKNAANSAQKSICGHYCDAFALRQHLESSYLETMQFEDKDVRAARWFKVMSAKVDNLNSVVQRLINEFDGQIYIESQKLKKEGYLIILAMLIFLLVAIFFALVLNYSIISPVRKLTYALNDMSEGQNNIHFNHIDSKDEIGSMQLAFEKLRRKLLQGDVYKATVSQQQKEIKYRKSQQDHFQQLALTDALTGAVNRHHFNEVLDQEIANVNNHGSPLSIMLLDIDHFKSVNDRYGHGVGDEVLVMFYQTCVEAVRSSDVVARIGGEEFVIIMPNTQLVNAQKFAERLRQKIAKLELNIANNQISVTVSIGVSQWQSEYFTNAETFVAHADKSLYQAKNSGRNKVVVAQQ | failed
VAASWREQFIRAEQTHWDAVTETASETYWEGGVLSDVTALAPDPATLFISNSMPIRDMDRFGGPRDADLTVLGNRGASGIDGITSTALGAGSATSDPLVLVTGDLAYYHDMNGLLALGRCAVDATVVLLNNDGGGIFHMLPIEDHPTFEDQFRTPHGLDFEPTEALYSLQFERVADRRQFRERFAESVQTDGTQVIEVRFDAGDSHAVRDQLTE | failed
MKLDLARKRPSLLARLWLRLGALLGRTLLLLLVIGLLGWALSSAWFAWHHRGPVAVQEQVPADEAARTQDIIQTAVRIVDQHREGTRYLRDAHAKAHGCVKAQVQVLNDLSPPLRQGVFATPGQTWQAVVRLSNGNAYPQFDSIRDARGMAIKLLDVPGQQLMASESQRREQDFVMFNHPNFFVSDVAEYQQNIAAQADGKKVGAFFPGWDPRTWQVRHLFIALATLSPAPASPTQTTYYSVSPYKFGNANAKFRVMPDPESCPAYSLPAQNQDLPNFLRSALTQQLSTDRVGACFVLQVQRQDPNRFMPIEDTSIEWKESDAPFETVARVTLPAQDFDTPAQNLACDNQSFNPWFGLEAHRPIGGINRLRKAVYEAVSDYRHSRNAEQ | failed
MKLPKALNEATAGAALKYHIKRALERSHSISDFSKNLELSTQKSHFSNNTLKIIEELNNGVKQASEEIKEKARDFSNQKLTNEQIKDLLNNAEIPTSGRDAITFGVNNLNPEIVEFLHKNNKKMIIEKASNKELELLKDANFKHPENIRASLDHDAIAHILKRHGVNSVNVRNGEIPITNEDIANYRYIVNNADAILRTLDNENKELISAFKQINGYAVVVEQAINKKNELVLKTMYKSKGDYKDNNAYKKFSSTHTLNADAKVNHRLSSYSGATENTTQKDLIDQENLLKTSENLNESTPKPTNLSPLEQANAEKLAKLESEKLESEKEFLKAKEQEATRKAALKKKLEHERGNAGNIESQTKIEVGEDIPTQTQAQLPKSRVRLNEREIYDLDYAIVKAKDLKPSFTTGGTQKRTDMNEEQIKSIAENFDPKKIFGSGGFEDLPIILHDGQVIAGNHRIQGMLNFTPKSRFSYERAIKEYYHIDLKPDELLVRVPHKRLNNTEINNLAASSNQGRFNSESDHAIAVLSHYEAKLKELDQKLDADSIYSLKNIVAKNLNFDKATHPNVTDSNLALLMFNMPRTKTQGIELLNRWKKEFSNDIKSYEKVKKMFVDNAGSFHNLIHDLNFPKVSLNAYLSDIMDRSFANLKNYQSTSESLKDLSEKFYKTSSLEMFEKSDQSTSDISEILGGAIARFARFDDPSKALFEALRSDNIKKGLKDYKIADVTKDMFNADSKEFKDIDIYDFTHYLLMVNREPNENNPILKRLIEAVKDMQKESEKGIKQKLETPSEWGHNYSEFKGDGLGAINKLLETKKGFVAGAFHKEGLGDIDLVYGNSKYGLEHIFNRRESDAIDKGMSKEEAKKYALKIINNIPNIISNGKLSKDNLGRLSIEFENQRVGLNDSWKGETLNNRWVITSYEIDKSRNGLIESPLAPNYKGKDTNPLNLDSPNPTTKN | failed
MSRMRVLRLRLYGVVFLAVLALLLSLSVAVYQQVFTPAVRIKLEADSLGNQLDPRADVKLRGLLVGEVRAVHADGTKATLDIALKPEYVASIPSDAHARLLPKTLFGEKYVDLVAPARSSARPIRAGDVITQDRTRVGIELQQLMNDLLPLLRTVQPGKLNATLSAFATALEGRGDRIGDNLTRVEDYLHRLNPHLPSLTEDFARLADVAEVYGDAAPDLMEILRNTVTTSRTLVEQRDRLASALTTTATAAGTADDFLDANGDRLITLGRVSRPTLDLFARYSPEYPCLFAGLVREEQASEQAFRGGKMHITLEVVRQQGAYEPGEYPRYDDRSGPNCRDLPHPPVPAPGVHLNDGSTKGSASGGPGGVSATRAEQRSVGSLVAPVLGVPADQVPPVATLLFGPMARGTAVSVA | failed
MMNSDRNKYRKENDMGKQVRDKEVQEIMDYIMNKGEDSEERVYKLFKMNGVIYEIACNISRNQNSETTQNQIRKFYDYTIKINSKDEKKAKIKLAMMMPQIYYAIQRKVISSDSPFVKFLEDSIDKLNKTEDFENAFNRFLNVFQAIVAYSKKSRSDRNE | failed
MAEAVLENVNVPAVVSKDECIYCFESPYNEPLALNASPKHSLNICLNCFQATCNRHVPLHIRVTEYACDTIHSNYLTIAKVEKPKQENVEENNNNKKIKLQVIETSEDDTHNTIWSLQRFNGENVPRTVLSKSTDSDISSTALEKIEKILKAKSQDFEDKKNSWVLEISTCPHTENFQIPSKPENTVNLNQCSSCDLTQNLWLCLHCGNIGCGREQIGIDGHSHALDHYRSNNNHPLAIKLGSLSSSTYDLYCYACDDETRFPDNVNLGSALQIYGINIQEKIADEKTLVQLQVEQNENWQFRMVDSSGKEFEKLSASKNYGCGLINLGNSCYLNSVIQSLVNGGVPNWSLDFLGSKFPLDVVYPDNNLKCQWIKLLNAMKCEPELYPNGIKPTTFKKCIGQNHQEFSSNRQQDAMEFLTFLLDLLDKKFFSSSSSGIPNPNDLVRFMMEDRLQCNICGKVKYSYEPTEAIQIPLEENDEPQDMLERIKAYFEGQTIEFKCANCKEKVTANKKPGFKSLPQTLILNPIRIRLQNWIPVKTSNELSLPGLIDRDDMLDVSSYLSQGFDPQTENLLPDEDENRSSFTPNQCSISQLIEMGFTQNASVRALFNTGNQDAESAMNWLFQHMDDPDLNDPFVPPPNVPKKDKREVDEVSLTSMLSMGLNPNLCRKALILNNGDVNRSVEWVFNNMDDDGTFPEPEVPNEEQQQKKDLGYSTAKPYALTAVICHKGNSVHSGHYVVFIRKLVADKWKWVLYNDEKLVAADSIEDMKKNGYIYFYTRC | failed
MPMMNLIYLHGFRSSSLSIKGQQLKHYCQAFPYIQVHLPDLNLPPHEVIKKIENMIQSMDQVALIGSSLGGFYATQLVAKYQIPAVLINPAMRPWQLFRQLFSDQTLPYTVCETWTLDEQQLTEMEKIAVPVVQAADKILVLLQQGDEVLDYREAERYYSQPAHPSLIFTDAHGNHAMEDFENKLPLILAFL | failed
MWKRLLIVSAVSAAMSSMALAAPLTVGFSQVGSESGWRAAETNVAKSEAEKRGITLKIADGQQKQENQIKAVRSFVAQGVDAIFIAPVVATGWEPVLKEAKDAEIPVFLLDRSIDVKDKSLYMTTVTADNILEGKLIGDWLVKEVNGKPCNVVELQGTVGASVAIDRKKGFAEAIKNAPNIKIIRSQSGDFTRSKGKEVMESFIKAENNGKNICMVYAHNDDMVIGAIQAIKEAGLKPGKDILTGSIDGVPDIYKAMMDGEANASVELTPNMAGPAFDALEKYKKDGTMPEKLTLTKSTLYLPDTAKEELEKKKNMGY | failed
MLIFGFIGLFFLNIFSLHAQGIVTNKDAQEEFKWALNSYNNGIYDDALLSFKKILSFDPNNLDYHFWTGNVYYRLGYVEEALMEWRNLKDQGYKVPYLRHLISTIEQRRGIFSNYELNFKKLVKVASLDNSIYKRPHGYQITSLRADKYGGYYAANFVGNEILYFDVNNNVNALVKDGFSYLKSPYDVIEANNLLYVTLYSSDEIGVYDKVLGVKRKSIGNKGTKDGELLAPQYMAIDKRNYIYVSEWGNKRVSKFGLEGDFILHFGSRTSGYKGLLGPTGVTYLNENIYVADSLRNTIEVFDTSGNHLYSVFTSIEGIEGLSSDFVGNNVIVSSKDGVYKYSIAKKTITKILKADKMNSKISSSILDANNQMIVSDFNNAKVSVYKSDASLYDSLNVDVRRIIRLGGPKIYVELNVSSKSGLPVVGLKSENFSISNENYYIVNPKVAYNVNASKDINIAVVFDKSSYMKKYDTDQIVGLNALMELSKNKNFSFINATSVPIIDNIESLTNSIRNTSSLGPYSTDAVKTDVSLKLAGSGLMSKSSRRAVVYFSGGILNRKAFEKYSLDTIVSYYKNNDIRFYLILFGNDPINSKLQYLVNETGGAVIPFSSYEGVSKVYDLILEQKTGTYLLEYYYPGPQEPNKYFNLSVEANINQQTGRGEFAYFINLEHHHHHH | failed
KVVLYARVSSKQKDELVNQVKYLEEQVKEYDLVITDIGSGLNMKRKGFLKLLRMILNNEVSRVVIAYPDRLVRFGFEILEETCKAHGCEIVVLNQEEKEEELVEDLISVLVSFSEKLHGMRSHEYEKVKKCAEELKN | failed
MGTITGEFTEHSAEAIAAMLSYIVQTEYEKKQLAKDTLQKYEEVVFLSQFANAVATCTGLQELIEVIRAEIRQVISVDEIFLYLYDQSQDSLTPLLYKTEESLQNFKAIEKIVERVLKLNQVEVIDDIQNDQDYLNQPSKIRSLLCYSLTVQNSIIGVLGLAHYQVKHFDSSDLNLFSTLTGQVAAAIRTAQYYETIKNYSQTLEIRLEHHHHHH | failed
MREYNNPSDFKSFHDFVASYMKTYSRRLEIGTFRHHKSCMRKFKEYCEGLQFHELTEDFLRDYLIYMKKTLCNADSTAQRNLSTIKIYVSAAIKKGYMENDPFKDFGVKRLEHHHHHH | not failed
